The values below come from patent EP4814014A1, “BINDING MOLECULE AND ANTIBODY-DRUG CONJUGATE AND USE THEREOF” (priority 2023, dated 2025).

For one assay, the system named is EBC-1. The experiment in a line: Cell killing assay of ADCs (CCK8), EBC-1. It counts as cell-based, human. Conditions: Table 10A; Target cell: EBC-1; 3-5 days. The method, then:
Killing of target cells MDA-MB-468, EBC-1, and NCI-H1975 cells (Cell Bank of the Chinese Academy of Sciences) by the ADC molecules formed by conjugating the […] anti-EGFR/cMet antibody molecules described above to a toxin was assayed by the […].
The cells (100 µL, 1 × 10^4) resuspended in a cell culture medium were seeded into each well of a 96-well plate and cultured in an incubator at 37 °C with 5% CO2 overnight. The next day, 100 µL of serially diluted V-20-Fc-PEG-EVC-MMAE, V-23-Fc-PEG-EVC-MMAE, and V-26-Fc-PEG-EVC-MMAE, as well as positive control ADCs ABBV399 and AZD9592 were added to corresponding wells. The cells were cultured for another 3-5 days. Then, 20 µL of CCK8 (Shanghai Life iLab Biotech, Cat. No. AC11L054) was added to each well. The mixtures were cultured in an incubator at 37 °C with 5% CO2 until color development. The absorbance at 450 nm was recorded using a microplate reader (Molecular Device, SpectraMax M5).
The cell viability was calculated by the following formula: percentage cell viability = [(As - Ab) / (Ac - Ab)] × 100. As = experimental well absorbance (cells, culture medium, CCK8, and ADCs); Ab = blank well absorbance (culture medium and CCK8); Ac = control well absorbance (cells, culture medium, and CCK8).

Assay [1] has as its target T1, human cMet on cells (human, UniProt P08581 25-1390).
T1 construct: whole, on cells; Cell lines: CHO-S-cMet, CHOK1-hucMet, EBC-1, MKN45, NCI-H1975; the cell line is named under assay; also called CHO-S-cMet; CHOK1-hucMet
Description: FACS, VHH-His on MKN45 cells. In general terms: In flow cytometry, cells or beads pass a laser one at a time.

Assay [2] has as its target Human EGFR antigen (SPR of Example 4.4) (human, UniProt P00533 25-645). Description: SPR method II, antibody captured on Protein A chip, antigen injected, 1:1 model. (Surface plasmon resonance follows binding to a sensor surface in real time, without labels.)
Assay [3] concerns the target Cyno EGFR antigen (SPR of Example 4.4) (cynomolgus monkey, UniProt A0A2K5WK39 25-645). The description is as above.
Assay [4] has as its target T2, Human cMet antigen (human, UniProt P08581 25-932).
T2 construct: treated as one molecule; also called Human cMet-His antigen
The experiment in a line: ELISA, antigen coated at 1 ug/mL, VHH-Fc titrated. Background: In an ELISA, binding on a coated surface is turned into a signal by an enzyme label.

Assay [5] addresses T3, Cynomolgus monkey cMet antigen (cynomolgus monkey, UniProt A0A2K5UM36 25-932).
T3 construct: treated as one molecule; also called cynomolgus monkey cMet-His antigen; Cyno cMet
Description: ELISA, antigen coated at 1 ug/mL, VHH-Fc titrated.

Assay [6] deals with T1, human cMet on cells. The experiment in a line: FACS competition on EBC-1 cells, HGF-His as the ligand detected, VHH-Fc from 100 nM.
Assay [7] addresses T1, human cMet on cells. The experiment in a line: FACS on EBC-1 cells.
Assay [8] has as its target T1, human cMet on cells. The experiment in a line: FACS, VHH-His on MKN45 cells. This is another data set of the same source.
In assay [9] the target is T1, human cMet on cells. The experiment in a line: FACS, VHH-His on MKN45 cells. The source holds these as a separate data set.
Assay [10] concerns the target T1, human cMet on cells. The experiment in a line: FACS, VHH-His on CHOK1-hucMet cells.
Assay [11] concerns the target T1, human cMet on cells. The experiment in a line: FACS, VHH-His on CHOK1-hucMet cells. The source holds these as a separate data set.
Assay [12] concerns the target T2, Human cMet antigen. The experiment in a line: SPR method I, antigen on CM5 chip, VHH-His injected, 1:1 model.
Assay [13] addresses T3, Cynomolgus monkey cMet antigen. Described as above.
Assay [14] has as its target T1, human cMet on cells. Description: FACS, VHH-His on EBC-1 cells (cell column empty in this row).

T3 sequence (A0A2K5UM36 entry or part of it limits assumed, form in doubt): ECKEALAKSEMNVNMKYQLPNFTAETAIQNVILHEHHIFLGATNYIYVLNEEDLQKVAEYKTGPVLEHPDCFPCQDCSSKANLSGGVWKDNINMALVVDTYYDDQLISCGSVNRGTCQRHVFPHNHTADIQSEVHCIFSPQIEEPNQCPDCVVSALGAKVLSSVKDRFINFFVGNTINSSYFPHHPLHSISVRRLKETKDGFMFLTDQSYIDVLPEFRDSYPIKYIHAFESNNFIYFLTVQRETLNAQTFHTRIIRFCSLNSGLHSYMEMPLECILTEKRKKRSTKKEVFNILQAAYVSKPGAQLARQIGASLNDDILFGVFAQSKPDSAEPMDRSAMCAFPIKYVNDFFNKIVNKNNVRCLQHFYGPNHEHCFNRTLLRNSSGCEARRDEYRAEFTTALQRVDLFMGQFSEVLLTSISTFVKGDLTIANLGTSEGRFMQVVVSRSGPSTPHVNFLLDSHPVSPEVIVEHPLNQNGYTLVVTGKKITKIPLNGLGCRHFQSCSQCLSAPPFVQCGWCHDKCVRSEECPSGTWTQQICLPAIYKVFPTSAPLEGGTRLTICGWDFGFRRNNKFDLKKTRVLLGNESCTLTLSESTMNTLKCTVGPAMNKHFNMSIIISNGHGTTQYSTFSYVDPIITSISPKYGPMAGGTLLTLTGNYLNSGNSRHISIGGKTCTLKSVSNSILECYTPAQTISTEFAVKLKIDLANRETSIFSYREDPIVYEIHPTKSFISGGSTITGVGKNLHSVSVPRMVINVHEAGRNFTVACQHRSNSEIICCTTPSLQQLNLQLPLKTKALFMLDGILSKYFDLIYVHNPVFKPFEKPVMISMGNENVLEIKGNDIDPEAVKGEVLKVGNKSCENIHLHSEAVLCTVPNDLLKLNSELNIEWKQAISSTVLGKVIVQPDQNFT
T2 sequence (P08581 25-932): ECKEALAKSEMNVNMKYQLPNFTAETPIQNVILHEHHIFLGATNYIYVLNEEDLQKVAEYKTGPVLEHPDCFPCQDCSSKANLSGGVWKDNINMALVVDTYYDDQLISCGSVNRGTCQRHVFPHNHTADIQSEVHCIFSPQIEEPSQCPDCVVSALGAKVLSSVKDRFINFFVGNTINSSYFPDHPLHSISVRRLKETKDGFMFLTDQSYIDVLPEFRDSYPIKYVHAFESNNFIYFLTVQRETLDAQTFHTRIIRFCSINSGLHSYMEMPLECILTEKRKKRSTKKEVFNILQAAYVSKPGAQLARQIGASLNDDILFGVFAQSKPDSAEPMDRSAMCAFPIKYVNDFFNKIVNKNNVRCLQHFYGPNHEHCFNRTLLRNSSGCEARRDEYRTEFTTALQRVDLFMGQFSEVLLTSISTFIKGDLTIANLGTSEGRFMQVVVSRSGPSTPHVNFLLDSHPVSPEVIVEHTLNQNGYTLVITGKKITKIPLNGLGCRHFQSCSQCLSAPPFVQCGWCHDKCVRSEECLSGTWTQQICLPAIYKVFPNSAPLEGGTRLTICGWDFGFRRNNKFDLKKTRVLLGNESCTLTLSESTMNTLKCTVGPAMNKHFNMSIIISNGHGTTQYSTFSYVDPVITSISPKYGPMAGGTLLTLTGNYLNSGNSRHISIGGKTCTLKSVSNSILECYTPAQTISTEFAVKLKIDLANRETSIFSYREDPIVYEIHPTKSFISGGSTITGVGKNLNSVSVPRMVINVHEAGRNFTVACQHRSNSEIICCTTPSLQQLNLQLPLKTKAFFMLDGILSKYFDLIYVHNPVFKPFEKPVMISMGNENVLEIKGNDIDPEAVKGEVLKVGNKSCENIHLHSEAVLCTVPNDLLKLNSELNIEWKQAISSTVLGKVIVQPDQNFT
T1 sequence (P08581 25-1390): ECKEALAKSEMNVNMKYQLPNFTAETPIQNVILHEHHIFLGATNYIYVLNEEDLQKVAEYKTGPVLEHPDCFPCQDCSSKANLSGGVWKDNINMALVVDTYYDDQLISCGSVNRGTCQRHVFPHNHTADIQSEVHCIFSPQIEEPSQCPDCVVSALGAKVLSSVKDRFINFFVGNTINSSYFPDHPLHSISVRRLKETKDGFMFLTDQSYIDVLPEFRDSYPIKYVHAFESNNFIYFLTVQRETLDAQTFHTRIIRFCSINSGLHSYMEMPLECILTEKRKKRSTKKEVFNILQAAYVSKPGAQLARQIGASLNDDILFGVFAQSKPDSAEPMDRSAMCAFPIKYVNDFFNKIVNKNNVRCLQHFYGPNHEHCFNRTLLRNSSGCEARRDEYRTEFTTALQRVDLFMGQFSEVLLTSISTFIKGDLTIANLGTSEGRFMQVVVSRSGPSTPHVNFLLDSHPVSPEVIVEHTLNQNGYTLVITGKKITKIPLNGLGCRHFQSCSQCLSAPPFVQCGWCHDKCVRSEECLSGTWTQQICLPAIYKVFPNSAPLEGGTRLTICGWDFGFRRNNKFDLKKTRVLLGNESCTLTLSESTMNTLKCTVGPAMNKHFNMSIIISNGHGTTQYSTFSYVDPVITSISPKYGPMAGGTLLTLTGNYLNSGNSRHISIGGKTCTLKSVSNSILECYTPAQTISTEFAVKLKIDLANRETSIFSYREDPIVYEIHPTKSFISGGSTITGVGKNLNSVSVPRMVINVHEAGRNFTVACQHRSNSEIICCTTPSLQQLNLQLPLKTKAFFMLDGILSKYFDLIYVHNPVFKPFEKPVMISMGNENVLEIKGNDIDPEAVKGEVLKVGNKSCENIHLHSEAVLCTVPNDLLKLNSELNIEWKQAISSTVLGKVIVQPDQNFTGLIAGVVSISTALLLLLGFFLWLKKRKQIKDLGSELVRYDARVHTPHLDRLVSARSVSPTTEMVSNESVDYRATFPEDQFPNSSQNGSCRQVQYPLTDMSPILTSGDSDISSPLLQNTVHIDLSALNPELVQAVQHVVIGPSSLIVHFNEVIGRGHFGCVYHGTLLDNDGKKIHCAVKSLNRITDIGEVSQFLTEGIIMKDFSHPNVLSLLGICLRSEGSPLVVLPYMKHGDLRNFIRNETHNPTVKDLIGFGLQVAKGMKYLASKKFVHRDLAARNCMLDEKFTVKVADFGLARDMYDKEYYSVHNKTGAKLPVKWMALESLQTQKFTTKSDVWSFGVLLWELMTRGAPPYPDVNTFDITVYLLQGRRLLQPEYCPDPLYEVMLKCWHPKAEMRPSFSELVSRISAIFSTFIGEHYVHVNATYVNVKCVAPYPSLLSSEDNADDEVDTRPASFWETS

What is called IC50 is the point on the concentration scale where inhibition reaches its midpoint. Consider ABBV399 [reference compound], for which, in the assay on EBC-1, the IC50 was determined as 0.194 nM.

B1: 7A12-M2 (VHH, not shown: small tags and cut ends)
VHH: EVQLVESGGGLIQPGGSLRLSCKASGNIFSSNHMGWFRQAPGKQLEWVAYITTREITNYADSVKGRFTISRDNSKNTVYLQMNNLRSEDTAVYYCIADQSREIRRSWGQGTLVTVSS
The molecule B1 had a Maximum MFI value with human cMet on cells [1] of 36700 MFI.

B2: V-F42 (hu9B8_Fc)2 (Fc fusion, not shown: a dimerising Fc or GST)
chain: EVQLLESGGGLVQPGGSLRLSCAASGLTFSYYAMAWFRQAPGKEREFVAAINWNQGNTYNTDSVKGRFTISRDNSKNTVYLQMNSLTPEDTAVYYCAVRYNQASYLVARSSDYNYWGQGTLVTVSS
notes: dimeric VHH with an Fc tag at the C-terminus
One may read the Kd as a measure of binding affinity in units of concentration. As a reminder, the koff is the first-order rate constant of dissociation. As a reminder, the kon is a measure of how fast the partners come together. In [2], B2 showed a Kd of 11.9 nM, a koff of 0.000392 s⁻¹ and an on-rate (kon) of 33000 M⁻¹ s⁻¹. In [3], this molecule showed a Kd of 2.05 nM, a koff of 8.04e-05 s⁻¹ and a kon of 39200 M⁻¹ s⁻¹.

B3: V-n7A12 anti-cMet VHH-Fc (Fc fusion, not shown: a dimerising Fc or GST)
chain: EVQLVESGGGLVQAGGSLRLSCVASGNIFSSNHMGWFRQAPGKQREFIAYITTREITNYADSVKGRFTISRDNTKNTVYLQMNVLKPEDTAVYYCIADQSREIRRSWGQGTQVTVSS
notes: Bivalent VHH-Fc
The EC50 is the concentration at which the effect is half-maximal. Molecule B3 registered an EC50 with Human cMet antigen [4] of 0.066 nM. In addition, it took 0.063 nM to reach a half-maximal effect in [5] (EC50). Moreover, in the assay with human cMet on cells [6], the MFI value at the highest concentration worked out at 40600 MFI and the ratio of MFI value at the highest concentration to that at the lowest concentration worked out at 2.22.

B4: anti-cMet biepitopic M-1 molecule (bispecific antibody, V domains shown)
V domain 1: QSQLAESGGGLVQSGGSLGLSCVASGFTISRSIMSWYRQPPGKERDWVASIGSAGNTNYVDSVKGRFTISRDVAKNTVYLQMNSLKPEDTAVYYCKTTLAVSFSEYWGQGTQVTVSS
V domain 2: EVQLVESGGGLIQAGGSLRLSCTASGNIFSSYHMGWFRQAPGKQREFIAYITTREITNYADSVKGRFTISRDNSKNTVYLQMNNLRSEDTAVYYCIADQSREIRRSWGQGTLVTVSS
notes: Asymmetric double-chain form
Regarding B4, the binding result with human cMet on cells [7] is given as “binds”.

B5: 7A12-M3 (VHH, not shown: small tags and cut ends)
VHH: EVQLVESGGGLIQPGGSLRLSCTASGNIFSSNHMGWFRQAPGKQLEWIAYITTREITNYADSVKGRFTISRDNSKNTVYLQMNNLRSEDTAVYYCIADQSREIRRSWGQGTQVTVSS
Molecule B5 displayed a Maximum MFI value with human cMet on cells [1] of 57400 MFI.

B6: V-n7A12 anti-cMet VHH-His (VHH, not shown: small tags and cut ends)
VHH: EVQLVESGGGLVQAGGSLRLSCVASGNIFSSNHMGWFRQAPGKQREFIAYITTREITNYADSVKGRFTISRDNTKNTVYLQMNVLKPEDTAVYYCIADQSREIRRSWGQGTQVTVSS
notes: Monovalent parent VHH
As to B6, the EC50 with human cMet on cells [8] stood at 3.76 nM; with human cMet on cells [9], 3.76 nM; with human cMet on cells [10] it was 1.01 nM; with human cMet on cells [11], 1.94 nM. The “Maximum MFI value” with human cMet on cells [8] came to 35600 MFI; in the assay with human cMet on cells [9], 35600 MFI; in the assay with human cMet on cells [10], 74200 MFI. Besides, the Kd in the assay with Human cMet antigen [12] came out at 0.301 nM; in [13] it was 96 nM. Moreover, the koff with Human cMet antigen [12] came to 0.000153 s⁻¹; in [13], 0.00439 s⁻¹. Moreover, the kon with Human cMet antigen [12] is 509000 M⁻¹ s⁻¹; in assay [13] it was 45800 M⁻¹ s⁻¹.

B7: dpzn7A12m4.ml_1.m1 (VHH, not shown: small tags and cut ends)
VHH: EVQLVESGGGLVQPGGSLRLSCTASGNIFSSYHMGWFRQAPGKQREFIAYITTREITNYADSVKGRFTISRDNSKNTLYLQMNSLRAEDTAVYYCIADQSREIRRSWGQGTLVTVSS
notes: Humanized + PTM removal + secondary immunogenicity removal, anti-cMet VHH-His; also called hu7A12
In the assay with human cMet on cells [11], B7 yielded an EC50 of 2.1 nM.

B8: V-n9A2 anti-cMet VHH-Fc (Fc fusion, not shown: a dimerising Fc or GST)
chain: QSQLAESGGGLVQSGGSLGLSCVASGFTISRSIMSWYRQPPGKERDWVASIGSAGNTNYVDSVKGRFTISRDVAKNTVYLQMNSLKPEDTAVYYCKTTLAVSFSEYWGQGTQVTVSS
notes: Bivalent VHH-Fc
In the assay with Human cMet antigen [4], B8 registered an EC50 of 0.108 nM. In addition, the midpoint of the response in assay [5], the EC50, lay at 0.105 nM. For the same molecule, in the assay with human cMet on cells [6], the MFI value at the highest concentration was 82200 MFI and the ratio of MFI value at the highest concentration to that at the lowest concentration was found to be 1.12.

B9: VHH11 (VHH, not shown: small tags and cut ends)
VHH: QSQLVESGGGLVKPGGSLRLSCVASGFTISRSIMSWYRQPPGKERDWVASIGSAGNTNYVDSVKGRFTISRDNAKNSLYLQMNSLRAEDTAVYYCKTTLAVSFSEYWGQGTLVTVSS
notes: Humanized 9A2 anti-cMet VHH-His
In the assay with human cMet on cells [14], B9 returned a half-maximal effective concentration (EC50) of 2.11 nM.
